Test results reported in patent US20180022822A1, “NOVEL ANTI-FIBROBLAST ACTIVATION PROTEIN (FAP) BINDING AGENTS AND USES THEREOF” (Mabimmune Diagnostics AG, priority 2016, published 2018).

How the values were obtained:
[1] = molecular target: T1, rhFAP and FAP SB9 oligopeptidase homologues (rhDPPIV, rhPOP/PREP, rhDPP8, rhDPP9) (Homo sapiens, UniProt Q12884); assay: ELISA binding to SB9 oligopeptidase family enzymes; settings: sandwich ELISA affinity (EC50) assays
T1 construct: purchased Sino Biologicals 10464-H07H
T1 sequence (Q12884 26-760 limits assumed): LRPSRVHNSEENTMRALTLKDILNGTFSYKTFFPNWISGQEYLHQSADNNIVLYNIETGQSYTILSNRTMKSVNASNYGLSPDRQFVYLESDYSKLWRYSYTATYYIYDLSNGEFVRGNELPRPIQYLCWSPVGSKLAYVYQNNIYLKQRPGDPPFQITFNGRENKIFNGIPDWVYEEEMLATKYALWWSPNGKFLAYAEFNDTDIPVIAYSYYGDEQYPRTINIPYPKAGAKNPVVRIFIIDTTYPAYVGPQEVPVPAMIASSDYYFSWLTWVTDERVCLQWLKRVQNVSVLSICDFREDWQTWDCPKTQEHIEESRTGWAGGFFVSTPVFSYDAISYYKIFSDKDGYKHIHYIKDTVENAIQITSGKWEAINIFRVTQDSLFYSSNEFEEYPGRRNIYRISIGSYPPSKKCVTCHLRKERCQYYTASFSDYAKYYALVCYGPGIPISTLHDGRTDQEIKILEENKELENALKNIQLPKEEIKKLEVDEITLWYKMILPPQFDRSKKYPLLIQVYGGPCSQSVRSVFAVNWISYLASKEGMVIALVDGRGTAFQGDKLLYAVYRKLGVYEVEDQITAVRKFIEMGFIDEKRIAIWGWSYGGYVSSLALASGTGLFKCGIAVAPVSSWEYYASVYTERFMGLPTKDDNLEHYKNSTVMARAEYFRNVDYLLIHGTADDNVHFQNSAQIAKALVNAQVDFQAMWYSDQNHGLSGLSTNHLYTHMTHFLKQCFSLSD
Experimental: To determine the binding efficiency and inhibitory ability of NI-206.82C2 against other members of the SB9 oligopeptidase family that have sequence similarity to FAP, indirect ELISA and inihibiton assays were performed on active enzyme targets. Active recombinant human enzymes evaluated in this assay include: Fibroblast Activation Protein (FAP; Sino Biologicals, 10464-H07H), Dipeptidyl Peptidase IV (DPPIV, BPS Bioscience 80040), Dipeptidyl Peptidase 8 (DPP8, BPS Bioscience 80080), Dipeptidyl Peptidase 9 (DPP9, BPS Bioscience 80080), and Prolyl Oligopeptidase/Prolyl Endopeptidase (POP/PREP, BPS Bioscience 80105). Each recombinant peptidase was expressed with a purification tag, and attached to the 96 well ELISA plate using either a mouse anti-Histidine antibody (CloneTech), or a mouse anti-Glutathione S-transferase (GST, Sino Biologicals, 111213-MM02) tag antibody. Each enzyme was validated to bind and remained active on the ELISA plate using enzyme specific fluorogenic substrates. H-Gly-Pro-AMC (ATT Bioquest, 13450) was used to validate the presence and activity of DPP4, DPP9, and DPP8. […] Following a washing step, bound antibody was detected using 3,3′,5,5′-Tetramethylbenzidine (TMB) substrate. The reaction was stopped after 10 minutes by adding 2N H2SO4 and the resulting change in optical density was quantified using an ELISA plate reader at […] absorbance (FIG. 7 E).

[2] = molecular target: T2, active recombinant mouse FAP (Mus musculus, UniProt P97321); assay: DQ-gelatin cleavage inhibition, active recombinant mouse FAP; type: biochemical
T2 construct: expressed in a HEK293 cell line without the transmembrane and intracellular domains and an N-terminal 6× histidine tag; made in house; host or cells: HEK293
T2 sequence (P97321 26-761 limits assumed): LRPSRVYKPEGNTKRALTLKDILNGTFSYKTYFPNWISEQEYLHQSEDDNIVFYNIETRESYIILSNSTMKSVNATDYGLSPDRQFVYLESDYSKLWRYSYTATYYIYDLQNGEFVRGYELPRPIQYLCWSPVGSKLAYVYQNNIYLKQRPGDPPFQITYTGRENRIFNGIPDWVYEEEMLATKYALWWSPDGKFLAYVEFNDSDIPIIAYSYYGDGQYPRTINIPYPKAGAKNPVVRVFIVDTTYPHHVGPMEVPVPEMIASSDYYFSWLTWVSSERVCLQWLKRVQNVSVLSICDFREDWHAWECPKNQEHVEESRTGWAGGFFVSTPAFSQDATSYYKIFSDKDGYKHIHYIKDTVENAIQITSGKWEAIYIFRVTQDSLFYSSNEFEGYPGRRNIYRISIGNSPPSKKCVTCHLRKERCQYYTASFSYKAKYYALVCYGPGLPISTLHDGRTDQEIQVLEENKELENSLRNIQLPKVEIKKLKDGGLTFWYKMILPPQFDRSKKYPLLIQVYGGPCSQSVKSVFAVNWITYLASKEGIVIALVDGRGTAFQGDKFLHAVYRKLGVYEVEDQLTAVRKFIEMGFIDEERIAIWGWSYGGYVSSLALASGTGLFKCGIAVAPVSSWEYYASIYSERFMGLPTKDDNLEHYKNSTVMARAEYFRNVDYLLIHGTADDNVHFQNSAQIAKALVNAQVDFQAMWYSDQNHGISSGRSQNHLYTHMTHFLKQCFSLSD
Experimental: To determine the inhibitory ability of NI-206.82C2 against active recombinant murine FAP, recombinant murine FAP was expressed in a HEK293 cell line without the transmembrane and intracellular domains and an N-terminal 6× histidine tag. A 96-well ELISA plate was then coated with 50 uL of murine anti-His tag antibody at 6 μg/mL in PBS overnight at 4° C. The wells were then blocked with 60 μL of 2% BSA in PBS for 1 h at room temperature, and 50 μL of recombinant mouse FAP containing cell culture supernatant diluted 1:4 was added to the well and incubated overnight at 4C while gently shaking. Following three washing steps with PBS, 20 uL of sterile 12.5% BSA/PBS solution was added to all wells.

potency for inhibiting active recombinant mouse FAP compared to Val-boro-Pro and F19 [2]: higher potency
B1: NI-206.82C2: human-derived recombinant anti-FAP antibody; VH SEQ ID NO: 2 or 4 (PIMC), VL SEQ ID NO: 6 (antibody, V domains shown)
VH: QVQLQQSGPGLVKPSQTLSLTCAISGDSVSSNSVTWNWIRQSPSRGLEWLGRTYYRSKWYNDYAVSVKGRITINPDTSKNQFYLQLKSVTPEDAAVYYCARDSSILYGDYWGQGTLVTVSS
VL: QAVLTQPSSLSASPGASASLTCTLPSGINVGTYRIFWFQQKPGSPPQYLLSYKSDSDNHQGSGVPSRFSGSKDASANAGILLISGLQSEDEADYYCMIWHSSAWVFGGGTKLTVL
binding selectivity for rhFAP over SB9 oligopeptidase homologues [1]: selectively binds to recombinant human FAP (rhFAP) but not FAP SB9 oligopeptidase homologues
